Consider six molecules from patent publication US20210388105A1 (ELPISCIENCE SUZHOU BIOPHARMA, published 2021).

The target of experiment [1] is T1, human CD39 (full length, on cells) (human, UniProt P49961 1-510).
T1 construct: Recombinant on CHOK1-hCD39 cells or natural on SK-MEL-28, SK-MEL-5 and MOLP-8 cells; the cell line is named under assay; also called hCD39; ENTPD1
T1 sequence: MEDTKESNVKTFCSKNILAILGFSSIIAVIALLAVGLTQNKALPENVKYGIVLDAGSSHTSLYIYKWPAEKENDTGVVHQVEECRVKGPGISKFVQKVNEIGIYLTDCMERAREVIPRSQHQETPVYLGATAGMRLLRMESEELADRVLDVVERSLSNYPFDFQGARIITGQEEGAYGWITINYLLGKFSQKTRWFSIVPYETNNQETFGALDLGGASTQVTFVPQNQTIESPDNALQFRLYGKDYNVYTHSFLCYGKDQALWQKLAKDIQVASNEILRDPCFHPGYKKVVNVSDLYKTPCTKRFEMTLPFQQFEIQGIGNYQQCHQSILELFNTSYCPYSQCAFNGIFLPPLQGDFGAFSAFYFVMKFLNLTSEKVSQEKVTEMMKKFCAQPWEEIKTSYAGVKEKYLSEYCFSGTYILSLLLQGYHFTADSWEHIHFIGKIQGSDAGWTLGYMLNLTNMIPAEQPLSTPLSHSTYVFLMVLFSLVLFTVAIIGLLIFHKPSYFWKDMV
As to the kind of experiment: FACS, SK-MEL-28 cells. As for the experimental part:
Similarly, human CD39 expressing cells SK-MEL-5, SK-MEL-28 or MOLP-8, were incubated with a gradient concentration of anti-CD39 antibodies for 30 minutes at 4° C. Cells were washed 3 times using FACS buffer and next incubated with fluorescence labelled secondary antibody (goat-anti-mouse IgG or goat anti-human IgG) for 30 minutes at 4° C. Cells were washed 3 times and then re-suspended in FACS buffer and analyzed by flow cytometry analysis on BD Celesta. Data plotted and analyzed using GraphPad Prism 8.02.
Binding affinity of the humanized antibodies hu23.H5L5 and hu14.H1L1 were tested on different cells by FACS following the similar method as described in Example 3.2.
Reference antibodies T895 and 1394 were tested in parallel as control antibodies. As shown in FIG. 12 and summarized in Table 23, both antibodies hu23.H5L5 and hu14.H1L1 bound to human and cynomolgus CD39 expressing cells in a dose-dependent manner and with similar affinity by EC₅₀ at a sub-nanomolar or nanomolar level. Neither of them recognized mouse CD39 in the FACS study. Maximum signal (mean fluorescence intensity, MFI) differed between cells for each antibody may result from their different expression level.
In general terms: In flow cytometry, cells or beads pass a laser one at a time.

Experiment [2] deals with T2, KW27-8 (human CD39 mutant, C-terminal EGFP) (human, UniProt P49961 1-510).
T2 construct: expressed on HEK293F cells; not shown: C-terminal EGFP fusion (vector pCMV3-GFPSpark)
T2 chain: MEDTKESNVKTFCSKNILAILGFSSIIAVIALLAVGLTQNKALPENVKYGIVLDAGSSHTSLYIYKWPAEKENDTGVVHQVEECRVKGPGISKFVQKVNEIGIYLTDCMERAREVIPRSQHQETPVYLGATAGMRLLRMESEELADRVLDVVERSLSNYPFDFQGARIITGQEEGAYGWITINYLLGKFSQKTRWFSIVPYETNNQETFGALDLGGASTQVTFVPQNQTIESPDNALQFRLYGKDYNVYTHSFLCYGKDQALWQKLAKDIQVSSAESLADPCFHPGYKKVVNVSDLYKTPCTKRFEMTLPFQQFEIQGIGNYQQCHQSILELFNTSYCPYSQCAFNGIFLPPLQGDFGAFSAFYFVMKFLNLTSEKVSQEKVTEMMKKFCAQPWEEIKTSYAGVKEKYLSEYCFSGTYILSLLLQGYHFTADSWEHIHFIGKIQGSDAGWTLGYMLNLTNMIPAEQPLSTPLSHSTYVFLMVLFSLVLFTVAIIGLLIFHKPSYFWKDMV
As to the kind of experiment: FACS, mutant-EGFP on HEK293F cells. A digest of the protocol:
(§1)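 HEK293F cells were transfected with human CD39 mutants carrying C-terminal GFP and used 3 days later. Antibodies were titrated from 100 nM (3-fold, 11 points) and detected by FACS with AlexaFluor647 anti-hIgG. Relative binding was AlexaFluor647 intensity divided by GFP intensity.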

The target in experiment [3] is T3, KW27-14 (human CD39 mutant, C-terminal EGFP) (human, UniProt P49961 1-510).
T3 construct: expressed on HEK293F cells; not shown: C-terminal EGFP fusion (vector pCMV3-GFPSpark)
T3 chain: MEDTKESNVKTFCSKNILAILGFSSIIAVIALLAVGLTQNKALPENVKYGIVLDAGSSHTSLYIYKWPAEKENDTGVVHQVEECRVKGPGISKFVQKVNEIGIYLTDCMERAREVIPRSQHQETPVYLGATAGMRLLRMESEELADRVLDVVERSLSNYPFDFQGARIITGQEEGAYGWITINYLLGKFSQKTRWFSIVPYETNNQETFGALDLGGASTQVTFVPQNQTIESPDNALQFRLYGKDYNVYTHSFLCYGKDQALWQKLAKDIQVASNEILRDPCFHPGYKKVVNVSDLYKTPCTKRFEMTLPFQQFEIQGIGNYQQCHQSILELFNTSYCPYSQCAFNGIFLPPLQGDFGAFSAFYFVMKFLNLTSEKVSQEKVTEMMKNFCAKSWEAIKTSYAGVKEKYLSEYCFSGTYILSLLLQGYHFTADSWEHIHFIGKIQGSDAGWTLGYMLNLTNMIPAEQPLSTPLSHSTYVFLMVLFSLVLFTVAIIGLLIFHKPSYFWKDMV
As to the kind of experiment: FACS, mutant-EGFP on HEK293F cells. A digest of the protocol: as §1

Experiment [4] addresses T1, human CD39 (full length, on cells). As to the kind of experiment: FACS competition on CHOK1-hCD39; competitor mAb21-Alexa488. As for the experimental part: Anti-CD39 antibodies were labeled using Alex488 labeling kit and were diluted in a series of concentrations, before mixing with CHOK1-hCD39 cells to test binding EC₅₀using FACS. The non-labeled antibodies were tested for their blocking efficacy to the labelled ones. Briefly, mononuclear CHOK1-hCD39 cells were prepared to 2×10⁶/ml and plated into 96 well at 50 μl/well, then mixed with antibodies gradients to final volume at 100 μl, and then equal volume of Alex488 label antibodies were added at two folds EC80 concentration. 96 well plates were incubated at 4° C. for 1 hour, and spun down and washed 3 times with 200 μl FACS buffer. The FACS analysis was performed on FACScelesta machine and data was analyzed by Flowjo software. The blocking percentages were calculated and those having above 80% competition rate were allocated into one epitope group, compared with the non-competing well (Alex488 labeled antibody only).
Based on the competition results, the 4 anti-CD39 hybridoma antibodies (mAb14, mAb19, mAb21, mAb23) can be grouped into 4 different epitope groups, as shown in Table 11.

B1: Antibody T895 (antibody, V domains shown)
VH: EVQLQQSGPELVKPGASVKMSCKASGYTFTDYNMHWVKQSHGRTLEWIGYIVPLNGGSTFNQKFKGRATLTVNTSSRTAYMELRSLTSEDSAAYYCARGGTRFAYWGQGTLVTVSA
VL: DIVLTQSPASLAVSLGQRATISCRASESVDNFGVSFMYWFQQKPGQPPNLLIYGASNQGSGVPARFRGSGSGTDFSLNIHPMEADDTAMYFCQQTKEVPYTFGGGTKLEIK
notes: also called 31895
On to B1, for which the EC50 (as a rule, the concentration that produces a half-maximal response) in experiment [1] stood at 0.36 nM. For the same molecule, the binding result in experiment [2] and in experiment [3] was “binds” in each case.

B2: hu23.H5L5 (antibody, V domains shown)
VH: QVQLVQSGAEVKKPGASVKVSCKASGYNLKDTFLHWVRQAPGQGLEWMGRIDPANGNIKYDPKFQGRVTITADTSANTAYMELISLRSEDTAVYYCANSPYYYGSGYRIFDVWGQGTTVTVSS
VL: QIVLTQSPATLSLSPGERATLSCSAFSSVNYMHWYQQKPGQAPRLLIYTTSNLASGIPTRFSGSGSGTSYTLTISSLEPEDFAVYYCQQRSTYPFTFGQGTKLEIK
notes: humanized c23
B2 gave a 50% effective concentration (EC50) in experiment [1] of 0.99 nM. Further, the binding result in experiment [2] and in experiment [3] was “binds” throughout.

B3: c35 (antibody, V domains shown)
VH: EVRLQQSGAELVKPGASVKLSCTASGFNIEDTYVHWMKQRPEQGLEWIGRIDPAIDNSKYDPKFQGKATITAVSSSNTAYLQLSSLTSEDTAVYYCALYDGYNVYAMDYWGQGTSVTVSS
VL: DIVMTQAAFSNPVTLGTSASISCRSSKNLLHSNGITYLYWYLQRPGQSPQLLIYRASTLASGVPNRFSGSESGTDFTLRISRVEAEDVGVYYCAQLLELPHTFGGGTKLEIK
notes: its making is not described; also called chimeric antibody c35
Consider B3, for which the binding result in experiment [2] and in experiment [3] was “binds” in each case.

B4: mAb14 (antibody, V domains shown)
VH: EVKLEESGGGLVQPGGSMKLSCVASGFTFSKYWMNWVRQSPEKGLEWVAEIRLKSNKYGTHYAESVKGRFTISRDDSKNNVYLQMNNLRPEDTGIYYCTTQLDLYWFFDVWGAGTTVTVSS
VL: DIVMTQSPAILSVTPGDRVSLSCRASQSISDYLHWYQQKSHESPRLLIKYASQSISGIPSRFSGSGSGSNFTLSINSVEPEDVGVYFCQNGHSLPLTFGAGTKLELR
notes: mouse hybridoma antibody
The molecule B4 registered a blocking percentage in experiment [4] of 10%.

B5: c34 (antibody, V domains shown)
VH: EIQVQQSGPELVKPGASVKVSCKASGYSFTDYNMYWVKQSHGKSLEWIGFIDPYNGYTSYNQKFKGKATLTIDKSSSTAFMHLNSLTSEDSAVYYCAIYGYDDAYYFDYWGQGTTLTVSS
VL: QIVLTQSPAIMSASPGEKVTITCSATSSVSYMHWFRQKPGTSPKLWIYSTSNLASGVPARFSGSGSGTSYSLTISRMAAEDAATYYCQQRITYPFTFGSGTKLEIT
notes: its making is not described; also called chimeric antibody c34
Take B5: the binding result in experiment [2] and in experiment [3] was “binds” in each case.

B6: Antibody 9-8B (antibody, V domains shown)
VH: QIQLVQSGPELKKPGETVKISCKASGYTFTHYGMNWVKQAPGKGLKWMGWINTYTGELTYADDFKGRFAFSLETSASTAYLQINNLKNEDTATYFCARRAYYRYDYVMDYWGQGTSVTVSS
VL: DIVMTQSQKFMSTSVGDRVSVTCKASHNVGTNVAWYQQKPGQSPKALIYSASYRYSGVPGRFTGSGSGTDFTLTISNVQSEDLAEYFCHQYNNYPYTFGGGTKLEIK
As to B6, the binding result in experiment [2] and in experiment [3] was “binds” each time. In addition, the blocking percentage in experiment [4] is 16%.
